Reference: patent publication US12584139B2, “Nucleic acid construct set, kit, detection method and method for predicting drug effect” (KABUSHIKI KAISHA TOSHIBA, priority 2020, dated 2026)

Test system: human mammary tumor-derived cell line (MCF-7)
Experiment: NanoLuc luminescence assay after transfection of lipid particles encapsulating vectors 1 and vector 2
Assay type: cell-based
Settings: for luminescence amount ratio (luminescence intensity with vector 2 alone assumed to be 1): vector 1 (50 ng/well) together with vector 2 (1 ng/well), MCF-7, 48 hours; for NanoLuc luminescence intensity (RLU): vector 1 (50 ng/well) transfected together with vector 2 (1 ng/well), lipid particles, MCF-7, 48 hours after addition
Protocol: A human mammary tumor-derived cell line (MCF-7) was subjected to adhesion culture at 37° C. in a 5% CO2 atmosphere in a culture flask using a medium (MEM, GIBCO) to which 10% fetal bovine serum (FBS) was added. After the culture, the medium was removed, and the cells were washed with PBS, and then the cells were detached by 0.25% trypsin-EDTA treatment. Then, the cells were suspended in a medium to which 10% FBS was added to inactivate trypsin. After recovering the cells by centrifugation, the cells were suspended in a medium to which 10% FBS was added to be 2.0×10^5 cells/mL. To a 96 well culture dish (manufactured by Thermo Fisher Scientific), 200 μL of the cell suspension was added to be 4.0×10^4 cells/well.
Next, the lipid particles encapsulating the three types of vectors 1 prepared in Example 3 were added to the wells to be a DNA concentration of 50 ng/well. At the same time, the lipid particles encapsulating the vector 2 prepared in Example 3 were further added to the wells to be a DNA concentration of 1 ng/well. As a control, a well to which only the vector 2 was added was also provided. Therefore, a sample to which only the vector 2 was added, a sample to which the vector 1-10 and the vector 2 were added, a sample to which the vector 1-20 and the vector 2 were added, and a sample to which the vector 1-30 and the vector 2 were added were obtained. After the addition, the cells were cultured at 37° C. in a 5% CO2 atmosphere.
48 hours after the addition of the lipid particles, the culture plate was taken out of the incubator, and the medium was removed. Then, the cells were washed with PBS, Glo Lysis Buffer (Promega) was added thereto at 100 μL/well, and the resulting mixtures were frozen at −80° C. for 30 minutes. The mixtures were melted at room temperature and then collected in 1.5 ml centrifuge tubes. The cell lysates were centrifuged at 15,000 rpm for 10 minutes to precipitate cell residues, and 25 μL of supernatant was dispensed into a 96 well plate (Black, Nunc). To the dispensed supernatant, 25 μL of a luciferase substrate solution contained in a luciferase assay system (Nano-Glo (registered trademark) Luciferase Assay System, Promega Corporation) was added and mixed. The luminescence amount of the resulting mixture per 1 well per 0.1 seconds was measured by using a luminometer (Mithras LB 940, Berthold).

Molecule	luminescence amount ratio (luminescence intensity with vector 2 alone assumed to be 1)	NanoLuc luminescence intensity (RLU)
vector 1-10: CMV-promoter vector with Cre gene cleaved by ApaI/NheI, 10-base homologous sequences at the cleavage site (from SEQ ID NO: 9) (nucleic acid, misc_feature 1..1128 vector 1-10) DNA: AGTGAACCGTCAGATCCTCGAGATCTGCGATCTAAGTAATGTCCAATTTACTGACCGTACACCAAAATTTGCCTGCATTACCGGTCGATGCAACGAGTGATGAGGTTCGCAAGAACCTGATGGACATGTTCAGGGATCGCCAGGCGTTTTCTGAGCATACCTGGAAAATGCTTCTGTCCGTTTGCCGGTCGTGGGCGGCATGGTGCAAGTTGAATAACCGGAAATGGTTTCCCGCAGAACCTGAAGATGTTCGCGATTATCTTCTATATCTTCAGGCGCGCGGTCTGGCAGTAAAAACTATCCAGCAACATTTGGGCCAGCTAAACATGCTTCATCGTCGGTCCGGGCTGCCACGACCAAGTGACAGCAATGCTGTTTCACTGGTTATGCGGCGGGGCCCGTTAACGCTAGCTTATGCGGCGGATCCGAAAAGAAAACGTTGATGCCGGTGAACGTGCAAAACAGGCTCTAGCGTTCGAACGCACTGATTTCGACCAGGTTCGTTCACTCATGGAAAATAGCGATCGCTGCCAGGATATACGTAATCTGGCATTTCTGGGGATTGCTTATAACACCCTGTTACGTATAGCCGAAATTGCCAGGATCAGGGTTAAAGATATCTCACGTACTGACGGTGGGAGAATGTTAATCCATATTGGCAGAACGAAAACGCTGGTTAGCACCGCAGGTGTAGAGAAGGCACTTAGCCTGGGGGTAACTAAACTGGTCGAGCGATGGATTTCCGTCTCTGGTGTAGCTGATGATCCGAATAACTACCTGTTTTGCCGGGTCAGAAAAAATGGTGTTGCCGCGCCATCTGCCACCAGCCAGCTATCAACTCGCGCCCTGGAAGGGATTTTTGAAGCAACTCATCGATTGATTTACGGCGCTAAGGATGACTCTGGTCAGAGATACCTGGCCTGGTCTGGACACAGTGCCCGTGTCGGAGCCGCGCGAGATATGGCCCGCGCTGGAGTTTCAATACCGGAGATCATGCAAGCTGGTGGCTGGACCAATGTAAATATTGTCATGAACTATATCCGTAACCTGGATAGTGAAACAGGGGCAATGGTGCGCCTGCTGGAAGATGGCGATTAGGGCCGCGACTCTAGAACTAGTGGATCCCCC	0.45	about 2.9×10^5 RLU
vector 1-20: CMV-promoter vector with Cre gene cleaved by ApaI/NheI, 20-base homologous sequences at the cleavage site (from SEQ ID NO: 10) (nucleic acid, misc_feature 1..1138 vector 1-20) DNA: AGTGAACCGTCAGATCCTCGAGATCTGCGATCTAAGTAATGTCCAATTTACTGACCGTACACCAAAATTTGCCTGCATTACCGGTCGATGCAACGAGTGATGAGGTTCGCAAGAACCTGATGGACATGTTCAGGGATCGCCAGGCGTTTTCTGAGCATACCTGGAAAATGCTTCTGTCCGTTTGCCGGTCGTGGGCGGCATGGTGCAAGTTGAATAACCGGAAATGGTTTCCCGCAGAACCTGAAGATGTTCGCGATTATCTTCTATATCTTCAGGCGCGCGGTCTGGCAGTAAAAACTATCCAGCAACATTTGGGCCAGCTAAACATGCTTCATCGTCGGTCCGGGCTGCCACGACCAAGTGACAGCAATGCTGTTTCACTGGTTATGCGGCGGATCCGAAAAGGGCCCGTTAACGCTAGCTTATGCGGCGGATCCGAAAAGAAAACGTTGATGCCGGTGAACGTGCAAAACAGGCTCTAGCGTTCGAACGCACTGATTTCGACCAGGTTCGTTCACTCATGGAAAATAGCGATCGCTGCCAGGATATACGTAATCTGGCATTTCTGGGGATTGCTTATAACACCCTGTTACGTATAGCCGAAATTGCCAGGATCAGGGTTAAAGATATCTCACGTACTGACGGTGGGAGAATGTTAATCCATATTGGCAGAACGAAAACGCTGGTTAGCACCGCAGGTGTAGAGAAGGCACTTAGCCTGGGGGTAACTAAACTGGTCGAGCGATGGATTTCCGTCTCTGGTGTAGCTGATGATCCGAATAACTACCTGTTTTGCCGGGTCAGAAAAAATGGTGTTGCCGCGCCATCTGCCACCAGCCAGCTATCAACTCGCGCCCTGGAAGGGATTTTTGAAGCAACTCATCGATTGATTTACGGCGCTAAGGATGACTCTGGTCAGAGATACCTGGCCTGGTCTGGACACAGTGCCCGTGTCGGAGCCGCGCGAGATATGGCCCGCGCTGGAGTTTCAATACCGGAGATCATGCAAGCTGGTGGCTGGACCAATGTAAATATTGTCATGAACTATATCCGTAACCTGGATAGTGAAACAGGGGCAATGGTGCGCCTGCTGGAAGATGGCGATTAGGGCCGCGACTCTAGAACTAGTGGATCCCCC	0.31	~2.0×10^5 RLU
vector 1-30: CMV-promoter vector with Cre gene cleaved by ApaI/NheI, 30-base homologous sequences at the cleavage site (from SEQ ID NO: 11) (nucleic acid, misc_feature 1..1148 vector 1-30) DNA: AGTGAACCGTCAGATCCTCGAGATCTGCGATCTAAGTAATGTCCAATTTACTGACCGTACACCAAAATTTGCCTGCATTACCGGTCGATGCAACGAGTGATGAGGTTCGCAAGAACCTGATGGACATGTTCAGGGATCGCCAGGCGTTTTCTGAGCATACCTGGAAAATGCTTCTGTCCGTTTGCCGGTCGTGGGCGGCATGGTGCAAGTTGAATAACCGGAAATGGTTTCCCGCAGAACCTGAAGATGTTCGCGATTATCTTCTATATCTTCAGGCGCGCGGTCTGGCAGTAAAAACTATCCAGCAACATTTGGGCCAGCTAAACATGCTTCATCGTCGGTCCGGGCTGCCACGACCAAGTGACAGCAATGCTGTTTCACTGGTTATGCGGCGGATCCGAAAAGAAAACGTTGGGGCCCGTTAACGCTAGCTTATGCGGCGGATCCGAAAAGAAAACGTTGATGCCGGTGAACGTGCAAAACAGGCTCTAGCGTTCGAACGCACTGATTTCGACCAGGTTCGTTCACTCATGGAAAATAGCGATCGCTGCCAGGATATACGTAATCTGGCATTTCTGGGGATTGCTTATAACACCCTGTTACGTATAGCCGAAATTGCCAGGATCAGGGTTAAAGATATCTCACGTACTGACGGTGGGAGAATGTTAATCCATATTGGCAGAACGAAAACGCTGGTTAGCACCGCAGGTGTAGAGAAGGCACTTAGCCTGGGGGTAACTAAACTGGTCGAGCGATGGATTTCCGTCTCTGGTGTAGCTGATGATCCGAATAACTACCTGTTTTGCCGGGTCAGAAAAAATGGTGTTGCCGCGCCATCTGCCACCAGCCAGCTATCAACTCGCGCCCTGGAAGGGATTTTTGAAGCAACTCATCGATTGATTTACGGCGCTAAGGATGACTCTGGTCAGAGATACCTGGCCTGGTCTGGACACAGTGCCCGTGTCGGAGCCGCGCGAGATATGGCCCGCGCTGGAGTTTCAATACCGGAGATCATGCAAGCTGGTGGCTGGACCAATGTAAATATTGTCATGAACTATATCCGTAACCTGGATAGTGAAACAGGGGCAATGGTGCGCCTGCTGGAAGATGGCGATTAGGGCCGCGACTCTAGAACTAGTGGATCCCCC	0.37	~2.4×10^5 RLU
